Experimental data reported in patent publication US9850293B2, “Targeting trastuzumab-resistant HER2+ breast cancer with a HER3-targeting nanoparticle” (priority 2014, dated 2017).
Entries after “also recorded” stand apart in the source; their conditions may differ.

Assays:
BT474 parental cells = experiment: Tumor cell killing in culture; format: cell-based, human
Experimental: (§1) FIG. 21 depicts graph that show the results of the administration of HerDox on various cells. […] N=3. *=p<0.05 compared to parental. […] N=3.
(§2) N=3. *, p<0.05 compared to parental. […] N=3. […] Parental and resistant cell lines were treated with HerDox−/+HER3 blocking peptide (ErbB3 human; Prospec), and tested for cell survival 48 hours later. […] Treatments were compared to mock (saline)-treatment. […] N=3. *, p<0.05 compared to parental. […] N=3.
(§3) Parental cell lines were pre-treated with 0.5 mg/mL Tz for 24 hours before testing these cells for surface HER3 levels. […] Parental cell lines were pre-treated with 0.5 mg/mL Tz for 24 hours before testing these cells for HerPBK10 binding. […] SKBR3 Parental cells were treated with Tz at indicated concentrations (see upper X-axes) 4 and 24 hours before HerDox treatment and assayed for survival at 48-72 h after treatment. N=3. […] SK-474 Parental cells were treated with Tz at indicated concentrations (see upper X-axes) 4 and 24 hours before HerDox treatment and assayed for survival at 48-72 h after treatment. N=3. […] MDA-MB-435 non-resistant cells were treated with Tz at indicated concentrations (see upper X-axes) 4 and 24 hours before HerDox treatment and assayed for survival at 48-72 h after treatment. […] N=3. […] Tz-resistant cells were treated with Tz at indicated concentrations (see upper X-axes) 4 and 24 hours before HerDox treatment and assayed for survival at 48-72 h after treatment. N=3.
(§4) N=3. *, p<0.05 compared to parental. […] N=3. […] N=3. […] Tumor volumes were measured by calipers. […] Tumor volumes were measured by calipers. […]

MDA-MB-435 cells = experiment: Trastuzumab pre-treatment before HerDox, cell survival; format: cell-based, human; details: MDA-MB-435, 24 h pre-treatment
Description: N=3. […] N=3. […] N=3. […] N=3. […] N=3. […] N=3.

MDA-MB-231 (HER2−) = experiment: Targeted toxicity, cell survival by MTT assay; format: cell-based, human; details: 0.5 μM with respect to Dox; HerPBK10 0.1 μM; day 3
Experimental: (§5) FIG. 7 illustrates targeted toxicity. […] Cell titer was determined by metabolic (i.e. MTT) assay. FIG. 7 upper panel illustrates the effect of HerDox on MDA-MB-231 (HER2−) and MDA-MB-435 (HER2+) cell survival. Relative surviving cell numbers are represented as a % of corresponding untreated cells. […] Relative survival (as % of untreated cells) is shown for Day 3 of treatment.
(§6) N=3. […] Bar, about 4 μm. […] (E) compares HerDox and Dox on off-target tissue. […] Green fluorescence in nuclei indicates apoptosis (positive TUNEL stain).
(§7) By three days, HerDox reduced HER2+ cell numbers by over 75% whereas HER2− cell survival was unaffected (FIG. 7). […] These findings emphasize the importance of targeting by showing that the untargeted drug affects nontarget (i.e. HER2−) cells. […] To test receptor targeting, the inventors used free heregulin ligand (Her or eHRG) as a competitive inhibitor. […] As a final in vitro challenge, the inventors tested whether HerDox induces toxicity specifically to HER2+ cells in a mixed culture of HER2+ and HER2− breast cancer cells. To do this, the inventors produced a HER2− cell line tagged with green fluorescent protein (GFP) for cell identification in the mixed culture (FIG. 9-A). […] Altogether, these findings indicate that HerDox has the capacity to preferentially target toxicity to HER2+ cells. […] In serum-containing media, no such loss from HerDox is detectable. […] Co-migration of HerPBK10 bands further verified that the conjugates remained intact in the cell media.

[1] = test system: BT474 trastuzumab-resistant cells; experiment: Tumor cell killing in culture
Experimental: as §1, §2, §3, §4

MDA-MB-435 (HER2+) = experiment: Targeted toxicity, cell survival by MTT assay; format: cell-based, human
Experimental: as §5
FIG. 8 illustrates receptor specificity. MDA-MB-435 (HER2+) cells were incubated with free ligand (eHRG) at 10× molar excess of HerDox for one hour at 4° C. Media was aspirated to remove free eHRG and fresh media containing HerDox (0.5 μM) was added to cells. Cell survival was measured by MTT assay and represented as a % of relative untreated cell numbers.
as §6, §7

[2] = HerDox stability in serum-containing media; format: in vitro ADME; details: 10% fetal bovine serum media, 37° C.
Experimental: FIG. 6 (B) mimics extended exposure of HerDox to cells in culture medium. HerDox immobilized on Ni-NTA beads were incubated with bovine serum in DMEM for the indicated times at 37° C. before each sample was pelleted. […] Relative Dox release or retention in serum is expressed as normalized to control (corresponding sample lacking serum). N=3 per time point.
The inventors tested the stability of HerDox over 12 days under different storage temperatures: 40° C., room temperature, or 37° C. […] The inventors also examined HerDox stability in serum-containing media at 37° C. […] Dox retention in the conjugate was also assessed by eluting the conjugate from the beads at each time point.

SKOV3 = experiment: Cytotoxicity on cell lines (HerDox dose curves); format: cell-based, human; details: concentration yielding 50% reduction in cell survival, mean ± SD

B1: HerDox: non-covalent complex of HerPBK10, double-stranded oligonucleotide and intercalated Dox (Unit A+Unit B+Unit C) (conjugate)
chain: SHLVKCAEKEKTFCVNGGECFMVKDLSNPSRYLCKCQPGFTGARCTENVPMKVQNQEKAEELYQKMRRAAMYEEGPPPSYESVVSAAPVAAALGSPFDAPLDPPFVPPRYLRPTGGRNSIRYSELAPLFDTTRVYLVDNKSTDVASLNYQNDHSNFLTTVIQNNDYSPGEASTQTINLDDRSHWGGDLKTILHTNMPNVNEFMFTNKFKARVMVSRLPTKDNQVELKYEWVEFTLPEGNYSETMTIDLMNNAIVEHYLKVGRQNGVLESDIGVKFDTRNFRLGFDPVTGLVMPGVYTNEAFHPDIILLPGCGVDFTHSRLSNLLGIRKRQPFQEGFRITYDDLEGGNIPALLDVDAYQASLKDDTEQGGGGAGGSNSSGSGAEENSNAAAAAMQPVEDMNDHAIRGDTFATRAEEKRAEAEAAAEAAAPAAQPEVEKPQKKPVIKPLTEDSKKRSYNLISNDSTFTQYRSWYLAYNYGDPQTGIRSWTLLCTPDVTCGSEQVYWSLPDMMQDPVTFRSTRQISNFPVVGAELLPVHSKSFYNDQAVYSQLIRQFTSLTHVFNRFPENQILARPPAPTITTVSENVPALTDHGTLPLRNSIGGVQRVTITDARRRTCPYVYKALGIVSPRVLSSRTFKKKKKKKKKK
modifications: left off: small tags and cut ends
BT474 parental cells; 48-72 h after treatment
  cell death on parental BT474 (comparative): higher cell death compared to Tz and Tz+Pz; also recorded: modestly improved over trastuzumab; also recorded: modestly improved over Tz
BT474 parental cells; parental BT474, 4 h pre-treatment
  enhancement of HerDox toxicity by trastuzumab pre-treatment: 50%
BT474 parental cells; parental BT474, 24 h pre-treatment
  enhancement of HerDox toxicity by trastuzumab pre-treatment: ~75%
MDA-MB-435 cells
  enhancement of HerDox toxicity by trastuzumab pre-treatment: modest enhancement in toxicity
MDA-MB-231 (HER2−)
  effect on HER2− cell survival: unaffected
[1]; 48-72 h after treatment
  effect on BT474 resistant cells: completely killed off; also recorded: complete cell death at all HerDox concentrations tested; also recorded: effectively eliminated
[1]; Tz-resistant BT474
  cytotoxicity at five-fold lower HerDox concentrations with trastuzumab pre-treatment: further enhanced cytotoxicity
  effect on cell survival at five-fold lower HerDox concentrations: still had a potent effect on cell survival
MDA-MB-435 (HER2+); 0.5 μM with respect to Dox, by three days
  reduction of HER2+ cell numbers: over 75%
MDA-MB-435 (HER2+); eHRG at 10× molar excess, HerDox 0.5 μM
  cell killing with free heregulin ligand as competitive inhibitor: completely inhibited cell killing
[2]
  Dox release from conjugate in serum: no significant release of Dox
[2]; each time point
  Dox retention by conjugate in serum: completely retained
SKOV3
  EC50: 0.18 ± 0.03 µM
